This note sets out measurements from patent publication US20240189423A1.

Test [1] has as its target tumor-associated calcium signal transducer 2 (TROP2) (UniProt P09758). The experiment in a line: cell-based or functional assay.
Test [2] concerns the target human epidermal growth factor receptor 2 (HER2) (human) (UniProt P04626). In words: cell-based or functional assay.

Chain of tumor-associated calcium signal transducer 2 (TROP2) (P09758 27-323 limits assumed): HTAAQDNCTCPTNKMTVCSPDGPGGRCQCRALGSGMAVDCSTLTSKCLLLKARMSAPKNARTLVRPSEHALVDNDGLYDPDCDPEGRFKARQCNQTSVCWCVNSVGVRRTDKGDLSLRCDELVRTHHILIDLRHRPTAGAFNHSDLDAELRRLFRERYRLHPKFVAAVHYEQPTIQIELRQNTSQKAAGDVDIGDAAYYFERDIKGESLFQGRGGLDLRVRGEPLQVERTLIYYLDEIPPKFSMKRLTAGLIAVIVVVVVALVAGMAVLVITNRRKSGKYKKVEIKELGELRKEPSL

With “CXCL12-Sacituzumab (bispecific antibody)”, the Dmax (%), TROP2, MCF7 in test [1] was 51%.
In test [2], “CXCL12-Trastuzumab (bispecific antibody)” registered an IC50 of cell viability, modified MTT assay, MDA-MB-175VII cells, 5 days of 86.8 nM and an IC50 of cell viability, modified MTT assay, SK-BR-3 cells, 5 days of 199 nM.
